This note sets out measurements from patent publication US20220372155A1 (LYVGEN BIOPHARMA, published 2022).

Experiment [1] concerns the target T1, human CD40 expressed on CHO cells (human, UniProt P25942 21-277).
T1 construct: whole, on cells; also used for the reporter cells over-expressing human CD40; also called cellular CD40; CHO-CD40 cells
Put plainly: FACS, CHO cells. For orientation: A flow cytometer gives signals particle by particle.

For experiment [2], the target named is T2, Human CD40 ECD protein (mouse IgG2a Fc tag) (human, UniProt P25942 21-193).
T2 construct: extracellular domain; also called Human CD40-msFc; human recombinant CD40; not shown: mouse IgG2a Fc tag
Put plainly: bridging ELISA, coated B7H3-His, soluble CD40-msFc. How it is done:
Anti-B7H3/CD40 bi-specific antibodies were analyzed by ELISA for their simultaneous binding to recombinant human B7H3 and human CD40. Briefly, Human B7H3 CD protein (His-tag) was diluted and coated onto an ELISA plate with a volume of […] by incubation at 4° C. overnight. The next day, the plate was blocked with PBST-BSA buffer, then serially diluted samples of anti-B7H3/CD40 bi-specific antibodies were pipetted into appropriate wells at 50 μL/well, and the plate was incubated for 1 h followed by washing. Human CD40-msFc antibody was added into the plate at 50 μL/well. After 1-hour incubation at room temperature, […] anti-Mouse IgG (H+L) antibody was added into the plate at 100 μL/well. The plate was incubated for 1 hour at room temperature followed by washing. TMB substrate solution was added at 100 p L/well and the color development was stopped by adding 100 uUwell Stop Solution (2N H2SO4). Absorbance at 450 nm and 620 nm was read by Tecan F200 Pro plate reader. GraphPad 7.0, “[Agonist] vs. response—Variable slope (four parameters)” was used to plot the binding data and calculate binding EC50 values.
In general terms: ELISA stands for enzyme-linked immunosorbent assay.

The target of experiment [3] is T3, human PD-L1 expressed on CHO cells (human, UniProt Q9NZQ7 19-290).
T3 construct: whole, on cells; also used for human PD-L1 on Raji cells in the reporter assay; also called cell surface PD-L1; Raji-PD-L1 cells
Kind of experiment: FACS, CHO cells.

In experiment [4] the target is T4, human B7H4 expressed on CHO cells (human, UniProt Q7Z7D3 25-282).
T4 construct: whole, on cells; also called VCTN1
T4 sequence (looked up): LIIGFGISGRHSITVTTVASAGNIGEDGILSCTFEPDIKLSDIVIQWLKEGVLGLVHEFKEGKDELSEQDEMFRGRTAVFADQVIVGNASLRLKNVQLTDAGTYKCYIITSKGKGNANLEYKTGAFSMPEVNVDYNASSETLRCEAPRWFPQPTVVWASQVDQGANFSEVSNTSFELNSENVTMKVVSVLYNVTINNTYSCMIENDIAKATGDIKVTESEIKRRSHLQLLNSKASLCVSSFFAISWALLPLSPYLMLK
Kind of experiment: FACS, CHO cells.

In experiment [5] the target is T2, Human CD40 ECD protein (mouse IgG2a Fc …). Put plainly: bridging ELISA, coated B7H4, soluble CD40 ECD-mFc. How it is done:
Anti-B7H4/CD40 bi-specific antibodies were analyzed by ELISA for their simultaneous binding to recombinant human B7H4 and human CD40. Briefly, human B7H4 protein was diluted and coated onto an ELISA plate with a volume of […] by incubation at 4° C. overnight. The next day, the plate was blocked by PBST-BSA buffer, then serially diluted samples of anti-B7H4/CD40 bi-specific antibodies were pipetted into appropriate wells at 50 μL/well, and the plate was incubated for 1 h followed by Washing. Human CD40 ECD protein (mouse IgG2a Fc tag) was added into the plate at 50 μL/well. After 1-hour incubation at room temperature, HRP-conjugated anti-mouse IgG (H+L) antibody was added into the plate at 100 μL/well. The plate was incubated for 1 hour at room temperature followed by washing. TMB substrate solution was added at 100 μL/well and the color development was stopped by adding 100 uL/well Stop Solution (2N H2SO4). Absorbance at 450 nm and 620 nm was read by Tecan F200 Pro plate reader. GraphPad 7.0, “[Agonist] vs. response—Variable slope (four parameters)” was used to plot the binding data and calculate binding EC50 values.

T1 sequence (P25942 21-277): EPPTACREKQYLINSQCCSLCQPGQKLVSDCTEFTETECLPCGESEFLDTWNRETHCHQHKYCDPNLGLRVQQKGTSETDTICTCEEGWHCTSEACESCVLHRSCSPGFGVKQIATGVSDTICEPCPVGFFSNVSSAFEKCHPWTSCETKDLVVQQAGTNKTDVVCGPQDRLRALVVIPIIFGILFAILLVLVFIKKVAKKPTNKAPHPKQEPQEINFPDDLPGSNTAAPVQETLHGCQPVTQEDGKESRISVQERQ
T2 sequence (P25942 21-193): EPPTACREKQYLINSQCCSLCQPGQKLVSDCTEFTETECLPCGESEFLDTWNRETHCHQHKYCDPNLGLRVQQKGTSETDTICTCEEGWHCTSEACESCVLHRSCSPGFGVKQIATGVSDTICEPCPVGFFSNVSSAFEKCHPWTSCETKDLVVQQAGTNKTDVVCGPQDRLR
T3 sequence (Q9NZQ7 19-290): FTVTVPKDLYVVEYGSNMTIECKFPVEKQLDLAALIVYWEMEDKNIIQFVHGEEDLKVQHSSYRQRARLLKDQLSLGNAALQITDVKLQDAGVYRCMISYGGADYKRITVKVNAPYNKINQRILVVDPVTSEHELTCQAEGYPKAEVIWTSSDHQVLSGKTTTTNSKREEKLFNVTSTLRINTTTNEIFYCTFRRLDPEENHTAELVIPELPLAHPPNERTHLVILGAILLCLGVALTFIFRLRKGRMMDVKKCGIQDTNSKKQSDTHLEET

B1: Ly610 (bispecific antibody, human IgG1, kappa)
heavy: EVQLQQSGPELVKPGASVKMSCKASGYTFTSYVMHWVKQKPGQGLEWIGYINPYNDGTECTDKFKGKATLTSDKSSSTAYMELSSLTSEDSAVYYCASIYYGYDGTYFGVWGAGTSVTVSSASTKGPSVFPLAPSSKSTSGGTAALGCLVKDYFPEPVTVSWNSGALTSGVHTFPAVLQSSGLYSLSSVVTVPSSSLGTQTYICNVNHKPSNTKVDKKVEPKSCDKTHTCPPCPAPELLGPSVFLFPPKPKDTLMISRTPEVTCVVVDVSHEDPEVKFNWYVDGVEVHNAKTKPREEQYNSTYRVVSVLTVLHQDWLNGKEYKCKVSNKALPAPIEKTISKAKGQPREPQVYTLPPSREEMTKNQVSLTCLVKGFYPSDIAVEWESNGQPENNYKTTPPVLDSDGSFFLYSKLTVDKSRWQQGNVFSCSVMHEALHNHYTQKSLSLSPGGGGGSGGGGSGGGGSGGGGSDIQMTQSPSSLSASVGDRVTITCKASQNIYIYLNWYQQKPGKAPKLLIYNTNNLQTGVPSRFSGSGSGTDFTLTISSLQPEDFATYYCLQHSSRRTFGGGTKVEIKGGGGSGGGGSGGGGSGGGGSQVQLVESGGGLVQPGGSLKLSCATSGFNFNDYFMNWVRQASGKGLEWVGQIRNKNYNYATYYTESLEGRVTISRDDSKNTAYLQMNSLKTEDTAVYYCTSYYYDGFADYFDYWGQGTTVTVSS
light: QIVLSQSPAILSTSPGEKVTMTCRASSSVSYMHWYQQKPGSSPKPWIYATSNLASGVPARFSGSRSGTSYSLTISRVEAEDAATYYCQQWSSNTLTFGGGTKLELKRTVAAPSVFIFPPSDEQLKSGTASVVCLLNNFYPREAKVQWKVDNALQSGNSQESVTEQDSKDSTYSLSSTLTLSKADYEKHKVYACEVTHQGLSSPVTKSFNRGEC
notes: Ly383 HC (IgG1 mutated Fc)-TM740 scFv VL-VH + Ly383 LC
As for B1, the binding result in experiment [1] and in experiment [2] was “binds” each time.

B2: Ly075 (antibody, human IgG1, kappa, V domains shown)
VH: QVQLVQSGAEVKKPGASVKVSCKASGYTFTDFWMSWVRQAPGQGLEWMGQIYPNTGTTHSNEKFKGRVTMTRDTSTSTVYMELSSLRSEDTAVYYCARSYHISTTPNWFAYWGQGTLVTVSS
VL: DIQMTQSPSSLSASVGDRVTITCKASQNVYKKLEWYQQKPGKVPKLLIYHTNILQTGVPSRFSGSGSGTDFTLTISSLQPEDVATYYCYQWNSGPTFGGGTKVEIKR
notes: humanized LYV5574, VH-1 and VL-1, human IgG1/kappa
On to B2, for which, in experiment [3], the binding result is on record as “binds”.

B3: Ly076 (antibody, human IgG1, kappa, V domains shown)
VH: QVQLVQSGAEVKKPGASVKVSCKASGYTFTDFWMSWVRQAPGQGLEWMGQIYPNTGTTHSNEKFKGRVTMTRDTSTSTVYMELSSLRSEDTAVYYCARSYHISTTPNWFAYWGQGTLVTVSS
VL: DIQMTQSPSSLSASVGDRVTITCKASQNVYKKLEWYQQKPGKVPKVLIYHTNILQTGVPSRFSGSGSGTDYTLTISSLQPEDVATYYCYQWNSGPTFGGGTKVEIKR
notes: humanized LYV5574, VH-1 and VL-2 (L42V, F71Y), human IgG1/kappa
For the molecule B3, in experiment [3], the binding result is “binds”.

B4: Ly490 (bispecific antibody, human IgG1, kappa)
heavy: EVQLVESGGGLVKPGGSLKLSCAASGFTFSDSGMHWVRQAPEKGLEWITYINSGSSTIYYADSVKGRFTISRDNAKNTLFLQMTSLRSEDTAMYYCARGRGYAMDYWGQGTSVTVSSASTKGPSVFPLAPSSKSTSGGTAALGCLVKDYFPEPVTVSWNSGALTSGVHTFPAVLQSSGLYSLSSVVTVPSSSLGTQTYICNVNHKPSNTKVDKKVEPKSCDKTHTCPPCPAPELLGPSVFLFPPKPKDTLMISRTPEVTCVVVDVSHEDPEVKFNWYVDGVEVHNAKTKPREEQYNSTYRVVSVLTVLHQDWLNGKEYKCKVSNKALPAPIEKTISKAKGQPREPQVYTLPPSREEMTKNQVSLTCLVKGFYPSDIAVEWESNGQPENNYKTTPPVLDSDGSFFLYSKLTVDKSRWQQGNVFSCSVMHEALHNHYTQKSLSLSPGGGGGSGGGGSGGGGSGGGGSDIQMTQSPSSLSASVGDRVTITCLASEDISNDLAWYQQKPGKAPKLLIYFVDRLLDGVPSRFSGSGSGTDFTLTISSLQPEDFATYYCQQSYKYPPTFGQGTKLEIKGGGGSGGGGSGGGGSGGGGSEVQLVESGGGLVQPGGSLRLSCAASGFTFTNYGLHWVRQAPGKGLEWVSSISPSGGVTYYRDSVKGRFTISRDNSKNTLYLQMNSLRAEDTAVYYCAKPFLGWGGANWIAHWGQGTLVTVSS
light: EIVLTQSPTTMAASPGEKITIFCSASSSISSDFLHWYQQKPGFSPKLLIYRISNLASGVPARFSGSGSGTSYSLTIGTMEAEDVATYYCQQGSNVPRTFGGGTKLEIKRTVAAPSVFIFPPSDEQLKSGTASVVCLLNNFYPREAKVQWKVDNALQSGNSQESVTEQDSKDSTYSLSSTLTLSKADYEKHKVYACEVTHQGLSSPVTKSFNRGEC
notes: Ly366 HC (IgG1 mutated Fc)-TM559 scFv VL-VH + Ly366 LC
Consider B4, for which the binding result in experiment [4], in experiment [1] and in experiment [5] was “binds” each time.

B5: Ly495 (bispecific antibody, human IgG1, kappa)
heavy: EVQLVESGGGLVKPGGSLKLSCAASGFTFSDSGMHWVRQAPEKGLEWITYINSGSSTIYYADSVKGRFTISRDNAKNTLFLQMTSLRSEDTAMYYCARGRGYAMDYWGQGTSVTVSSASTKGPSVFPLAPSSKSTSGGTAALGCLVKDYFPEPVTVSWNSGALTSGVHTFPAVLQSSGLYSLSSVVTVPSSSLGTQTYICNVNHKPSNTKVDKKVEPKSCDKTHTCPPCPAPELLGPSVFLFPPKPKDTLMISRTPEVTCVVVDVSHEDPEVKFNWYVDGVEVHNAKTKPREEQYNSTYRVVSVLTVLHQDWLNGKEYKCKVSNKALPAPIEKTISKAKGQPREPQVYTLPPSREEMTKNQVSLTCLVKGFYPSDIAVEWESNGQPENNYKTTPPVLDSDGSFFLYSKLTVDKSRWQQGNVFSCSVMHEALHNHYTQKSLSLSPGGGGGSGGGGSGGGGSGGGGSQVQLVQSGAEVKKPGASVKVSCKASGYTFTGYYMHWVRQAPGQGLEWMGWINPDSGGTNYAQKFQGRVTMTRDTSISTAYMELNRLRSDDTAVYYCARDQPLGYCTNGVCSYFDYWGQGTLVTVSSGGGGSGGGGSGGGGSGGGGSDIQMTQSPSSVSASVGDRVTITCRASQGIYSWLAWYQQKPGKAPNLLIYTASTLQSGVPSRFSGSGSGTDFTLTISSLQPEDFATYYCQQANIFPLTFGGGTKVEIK
light: EIVLTQSPTTMAASPGEKITIFCSASSSISSDFLHWYQQKPGFSPKLLIYRISNLASGVPARFSGSGSGTSYSLTIGTMEAEDVATYYCQQGSNVPRTFGGGTKLEIKRTVAAPSVFIFPPSDEQLKSGTASVVCLLNNFYPREAKVQWKVDNALQSGNSQESVTEQDSKDSTYSLSSTLTLSKADYEKHKVYACEVTHQGLSSPVTKSFNRGEC
notes: Ly366 HC (IgG1 mutated Fc)-Ly253 scFv VH-VL + Ly366 LC
Take B5: the binding result in experiment [4], in experiment [1] and in experiment [5] was “binds” in each case.

B6: Ly494 (bispecific antibody, human IgG1, kappa)
heavy: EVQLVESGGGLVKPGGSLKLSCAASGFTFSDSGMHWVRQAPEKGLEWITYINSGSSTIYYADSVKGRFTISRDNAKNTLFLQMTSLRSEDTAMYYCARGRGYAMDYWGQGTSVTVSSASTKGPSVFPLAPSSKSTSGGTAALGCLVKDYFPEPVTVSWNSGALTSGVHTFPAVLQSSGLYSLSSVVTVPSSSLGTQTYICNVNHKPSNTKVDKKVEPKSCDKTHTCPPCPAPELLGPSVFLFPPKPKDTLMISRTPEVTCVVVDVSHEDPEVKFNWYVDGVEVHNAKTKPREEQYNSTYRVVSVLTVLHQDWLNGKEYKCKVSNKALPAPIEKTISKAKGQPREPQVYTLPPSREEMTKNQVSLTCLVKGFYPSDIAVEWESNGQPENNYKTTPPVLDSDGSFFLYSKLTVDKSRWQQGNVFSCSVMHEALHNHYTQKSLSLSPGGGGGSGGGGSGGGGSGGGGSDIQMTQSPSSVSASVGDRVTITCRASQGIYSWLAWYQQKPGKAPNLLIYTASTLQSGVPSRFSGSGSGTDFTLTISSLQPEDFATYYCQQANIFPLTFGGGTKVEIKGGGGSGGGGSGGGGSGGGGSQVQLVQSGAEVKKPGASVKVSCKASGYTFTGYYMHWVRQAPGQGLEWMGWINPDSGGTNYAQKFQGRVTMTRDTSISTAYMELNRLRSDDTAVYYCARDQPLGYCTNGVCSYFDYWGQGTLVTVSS
light: EIVLTQSPTTMAASPGEKITIFCSASSSISSDFLHWYQQKPGFSPKLLIYRISNLASGVPARFSGSGSGTSYSLTIGTMEAEDVATYYCQQGSNVPRTFGGGTKLEIKRTVAAPSVFIFPPSDEQLKSGTASVVCLLNNFYPREAKVQWKVDNALQSGNSQESVTEQDSKDSTYSLSSTLTLSKADYEKHKVYACEVTHQGLSSPVTKSFNRGEC
notes: Ly366 HC (IgG1 mutated Fc)-Ly253 scFv VL-VH + Ly366 LC
For B6, the binding result in experiment [4], in experiment [1] and in experiment [5] was “binds” in each case.

B7: Ly491 (bispecific antibody, human IgG1, kappa)
heavy: EVQLVESGGGLVKPGGSLKLSCAASGFTFSDSGMHWVRQAPEKGLEWITYINSGSSTIYYADSVKGRFTISRDNAKNTLFLQMTSLRSEDTAMYYCARGRGYAMDYWGQGTSVTVSSASTKGPSVFPLAPSSKSTSGGTAALGCLVKDYFPEPVTVSWNSGALTSGVHTFPAVLQSSGLYSLSSVVTVPSSSLGTQTYICNVNHKPSNTKVDKKVEPKSCDKTHTCPPCPAPELLGPSVFLFPPKPKDTLMISRTPEVTCVVVDVSHEDPEVKFNWYVDGVEVHNAKTKPREEQYNSTYRVVSVLTVLHQDWLNGKEYKCKVSNKALPAPIEKTISKAKGQPREPQVYTLPPSREEMTKNQVSLTCLVKGFYPSDIAVEWESNGQPENNYKTTPPVLDSDGSFFLYSKLTVDKSRWQQGNVFSCSVMHEALHNHYTQKSLSLSPGGGGGSGGGGSGGGGSGGGGSEVQLVESGGGLVQPGGSLRLSCAASGFTFTNYGLHWVRQAPGKGLEWVSSISPSGGVTYYRDSVKGRFTISRDNSKNTLYLQMNSLRAEDTAVYYCAKPFLGWGGANWIAHWGQGTLVTVSSGGGGSGGGGSGGGGSGGGGSDIQMTQSPSSLSASVGDRVTITCLASEDISNDLAWYQQKPGKAPKLLIYFVDRLLDGVPSRFSGSGSGTDFTLTISSLQPEDFATYYCQQSYKYPPTFGQGTKLEIK
light: EIVLTQSPTTMAASPGEKITIFCSASSSISSDFLHWYQQKPGFSPKLLIYRISNLASGVPARFSGSGSGTSYSLTIGTMEAEDVATYYCQQGSNVPRTFGGGTKLEIKRTVAAPSVFIFPPSDEQLKSGTASVVCLLNNFYPREAKVQWKVDNALQSGNSQESVTEQDSKDSTYSLSSTLTLSKADYEKHKVYACEVTHQGLSSPVTKSFNRGEC
notes: Ly366 HC (IgG1 mutated Fc)-TM559 scFv VH-VL + Ly366 LC
For B7, the binding result in experiment [4], in experiment [1] and in experiment [5] was “binds” throughout.
